For this experiment, the target named is taxol-stabilized microtubules (polymerized porcine tubulin) (porcine, UniProt P02550 1-451; P02554 1-445).

For 2 molecules, Kd results are on record in article PMC6382854 (2019).

A word on the Kd: it is a measure of binding affinity in units of concentration. Lower therefore signals tighter binding.

taxol-stabilized microtubules (polymerized porcine tubulin), sequence (P02550 whole entry, chain 1 of 2): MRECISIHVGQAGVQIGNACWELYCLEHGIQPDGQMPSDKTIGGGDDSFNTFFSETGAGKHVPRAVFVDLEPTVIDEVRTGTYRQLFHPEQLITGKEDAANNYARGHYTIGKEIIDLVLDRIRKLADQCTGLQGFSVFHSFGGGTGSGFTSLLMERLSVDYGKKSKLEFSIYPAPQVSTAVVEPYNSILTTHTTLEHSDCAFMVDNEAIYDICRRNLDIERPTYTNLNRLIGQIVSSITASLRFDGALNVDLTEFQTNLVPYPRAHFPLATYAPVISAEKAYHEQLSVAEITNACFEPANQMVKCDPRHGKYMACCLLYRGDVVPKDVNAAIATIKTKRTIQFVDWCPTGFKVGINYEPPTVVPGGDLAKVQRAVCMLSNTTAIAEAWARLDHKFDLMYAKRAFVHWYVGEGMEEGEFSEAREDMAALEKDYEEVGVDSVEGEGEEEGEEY
taxol-stabilized microtubules (polymerized porcine tubulin), sequence (P02554 whole entry, chain 2 of 2): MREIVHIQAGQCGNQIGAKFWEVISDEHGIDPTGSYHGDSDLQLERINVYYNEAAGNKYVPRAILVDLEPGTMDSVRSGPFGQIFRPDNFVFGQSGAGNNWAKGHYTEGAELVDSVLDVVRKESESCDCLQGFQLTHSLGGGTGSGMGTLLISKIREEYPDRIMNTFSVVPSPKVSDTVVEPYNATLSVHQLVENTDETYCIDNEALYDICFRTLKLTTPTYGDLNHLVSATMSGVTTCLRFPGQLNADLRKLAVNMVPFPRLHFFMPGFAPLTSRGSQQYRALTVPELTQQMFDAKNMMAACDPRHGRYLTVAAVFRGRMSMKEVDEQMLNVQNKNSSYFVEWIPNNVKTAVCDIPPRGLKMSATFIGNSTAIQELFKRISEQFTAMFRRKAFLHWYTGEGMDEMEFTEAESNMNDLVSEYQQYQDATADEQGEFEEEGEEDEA

B1: 6xHis-tagged CC1ΔC223 (cytosolic N-terminal part of COMPANION OF CELLULOSE SYNTHASE 1, residues 1-120) (domain or fragment)
chain: MHAKTDSEVTSLAASSPARSPRRPVYYVQSPSRDSHDGEKTATSFHSTPVLSPMGSPPHSHSSMGRHSRESSSSRFSGSLKPGSRKVNPNDGSKRKGHGGEKQWKECAVIEEEGLLDDGD
Molecule B1 had a Kd of 6.9 µM.

B2: 6xHis-tagged CC1ΔC223YYAA (domain or fragment)
chain: MHAKTDSEVTSLAASSPARSPRRPVAAVQSPSRDSHDGEKTATSFHSTPVLSPMGSPPHSHSSMGRHSRESSSSRFSGSLKPGSRKVNPNDGSKRKGHGGEKQWKECAVIEEEGLLDDGD
For B2, the Kd was 16.3 µM.
